Assay results: patent US20220144927A1 (SUMITOMO DAINIPPON PHARMA, published 2022)

Experiments:
[1] = target: T1, mucin subtype 5AC (human, UniProt P98088 28-5654, limits assumed); experiment: ELISA, plate coated with crude extract antigen solution of SW1990 xenograft tumor, HRP anti-human IgG; reference antibody
T1 construct: Not a purified recombinant protein; also called MUC5AC; crude extract antigen solution
Description: (§1) Various antibodies were added to a 96 well plate coated with various antigens, and the plate was left standing for 1 hr at room temperature. The plate was washed, a blocking solution was added, and the mixture was left standing for 30 min at room temperature. The plate was washed, HRP-conjugated anti-human IgG was added, and the mixture was left standing for 1 hr or longer at room temperature. The plate was washed, a color development reagent (Bethyl Laboratories, Inc.) was added, and the degree of color development was measured by a microplate reader (VersaMax, Molecular Devices, LLC.).
(§2) In Table 2 and Table 3, a tumor mass collected from a cancer-bearing model mouse transplanted with human pancreatic cancer cell line SW1990 was homogenized, and the supernatant (crude extract antigen solution) after centrifugation was used as an antigen. In Table 4, a mucin fraction obtained by isopycnic centrifugation using cesium chloride from the crude extract antigen solution was used as the antigen.

[2] = target: T1, mucin subtype 5AC; experiment: ELISA, plate coated with mucin fraction (CsCl isopycnic centrifugation of SW1990 tumor crude extract), HRP anti-human IgG
Description: as §1, §2

[3] = target: T1, mucin subtype 5AC; experiment: ELISA, plate coated with crude extract antigen solution of SW1990 xenograft tumor, HRP anti-human IgG
Description: as §1, §2

Row | in vitro binding activity ratio to antibody 20 [2] | in vitro binding activity ratio to antibody 1 [3] | in vitro binding activity ratio to antibody 9 [3] | Binder | further results
1 |  |  |  | antibody 1 (antibody, V domains shown, Humanized antibody of the invention; also called H01L01) VH: EVQLLESGGGLVQPGGSLRLSCAASGFTFSNYGMSWVRQAPGKGLEWVSTISNSGRYTYFPDSVKGRFTISRDNSKNTLYLQMNSLRAEDTALYYCTRHLDYANYDAMDYWGQGTLVTVSS VL: DIVMTQSPSSLSASVGDRVTITCRASKSVTTSDFSYMHWYQQKPGKAPKLLIYLASNLESGVPSRFSGSGSGTDFTLTISSLQPEDFATYYCQHSREFPWTFGGGTKVEIK | in vitro binding activity ratio to antibody 1 [1]: 1 fold vs antibody 1
2 | 0.13 fold vs antibody 20 |  |  | antibody 18 (antibody, V domains shown, also called H06L06) VH: EVQLVESGGGLVKPGGSLRLSCAASGFTFSNYGMSWVRQAPGKGLEWVSTISNSGRYTYFPDSVKGRFTISRDNAKNSLYLQMNSLRAEDTAVYYCARHLDYANYDAMDYWGQGTLVTVSS VL: DIVMTQTPLSSPVTLGQPASISCRASKSVTTSDFSYMHWLQQRPGQPPRLLIYLASNLESGVPDRFSGSGAGTDFTLKISRVEAEDVGVYYCQHSREFPWTFGQGTKVEIK | 
3 | 0.49 fold vs antibody 20 |  |  | antibody 19 (antibody, V domains shown, also called H05L07) VH: EVQLLESGGGLVQPGGSLRLSCAASGFTFSNYGMSWVRQAPGKGLEWVSTISNSGRYTYFPDSVKGRFTISRDNSKNTLYLQMNSLRAEDTAVYYCAKHLDYANYDAMDYWGQGTLVTVSS VL: DIVMTQTPLSLSVTPGQPASISCRASKSVTTSDFSYMHWYLQKPGQPPQLLIYLASNLESGVPDRFSGSGSGTDFTLKISRVEAEDVGVYYCQHSREFPWTFGQGTKVEIK | 
4 | 0.97 fold vs antibody 20 | 0.99 fold vs antibody 1 |  | antibody 4 (antibody, V domains shown, Humanized antibody of the invention; also called H01L04) VH: EVQLLESGGGLVQPGGSLRLSCAASGFTFSNYGMSWVRQAPGKGLEWVSTISNSGRYTYFPDSVKGRFTISRDNSKNTLYLQMNSLRAEDTALYYCTRHLDYANYDAMDYWGQGTLVTVSS VL: DIVMTQSPDSLAVSLGERATINCKASKSVTTSDFSYLHWYQQKPGQPPKLLIYLASNLESGVPDRFSGSGSGTDFTLTISSLQAEDVAVYYCQHSREFPWTFGGGTKLEIK | 
5 |  |  | 0.9 fold vs antibody 9 | antibody 13 (antibody, V domains shown, Humanized antibody of the invention; also called H04L01) VH: EVQLLESGGGLVQPGGSLRLSCAVSGFTFSNYGMSWVRQAPGKGLEWVSTISNSGRYTYFPDSVKGRFTISRDNSRNTLYLQMNTLRAEDTAVYYCTRHLDYANYDAMDYWGQGTPVTVSS VL: DIVMTQSPSSLSASVGDRVTITCRASKSVTTSDFSYMHWYQQKPGKAPKLLIYLASNLESGVPSRFSGSGSGTDFTLTISSLQPEDFATYYCQHSREFPWTFGGGTKVEIK | 
6 |  |  | 1.36 fold vs antibody 9 | antibody 15 (antibody, V domains shown, Humanized antibody of the invention; also called H04L03) VH: EVQLLESGGGLVQPGGSLRLSCAVSGFTFSNYGMSWVRQAPGKGLEWVSTISNSGRYTYFPDSVKGRFTISRDNSRNTLYLQMNTLRAEDTAVYYCTRHLDYANYDAMDYWGQGTPVTVSS VL: DIQMTQSPSSLSASVGDRVTITCRASKSVTTSDFSYMHWYQQKPGKSPKLLIYLASNLESGVPSRFSGSGSGTDFSLTISSLQPEDFATYYCQHSREFPWTFGGGTKVEIK | 
7 |  | 1.03 fold vs antibody 1 |  | antibody 2 (antibody, V domains shown, Humanized antibody of the invention; also called H01L02) VH: EVQLLESGGGLVQPGGSLRLSCAASGFTFSNYGMSWVRQAPGKGLEWVSTISNSGRYTYFPDSVKGRFTISRDNSKNTLYLQMNSLRAEDTALYYCTRHLDYANYDAMDYWGQGTLVTVSS VL: DVVMTQSPSTLSASVGDRVTITCRASKSVTTSDFSYMHWYQQKPGQAPKLLIYLASNLESGVPSRFSGSGSGTDFTLTISSLQPEDFATYYCQHSREFPWTFGQGTKLEIK | 
8 |  |  |  | antibody 9 (antibody, V domains shown, Humanized antibody of the invention; also called H03L01) VH: LVQLVESGGGVVQPGRSLRLSCAASGFTFSNYGMSWVRQAPGKGLEWVATISNSGRYTYFPDSVKGRFTISRDNSKNTLYLQMNSLRAEDTAVYYCTRHLDYANYDAMDYWGQGTLVTVSS VL: DIVMTQSPSSLSASVGDRVTITCRASKSVTTSDFSYMHWYQQKPGKAPKLLIYLASNLESGVPSRFSGSGSGTDFTLTISSLQPEDFATYYCQHSREFPWTFGGGTKVEIK | in vitro binding activity ratio to antibody 9 [1]: 1 fold vs antibody 9
9 |  | 0.6 fold vs antibody 1 |  | antibody 5 (antibody, V domains shown, Humanized antibody of the invention; also called H02L01) VH: LVQLVESGGGVVRPGGSLRLSCAASGFTFSNYGMSWIRQAPGKGLEWVSTISNSGRYTYFPDSVKGRFTISRDNAKNSLYLQMNSLRAEDTALYYCTRHLDYANYDAMDYWGQGTLVTVSS VL: DIVMTQSPSSLSASVGDRVTITCRASKSVTTSDFSYMHWYQQKPGKAPKLLIYLASNLESGVPSRFSGSGSGTDFTLTISSLQPEDFATYYCQHSREFPWTFGGGTKVEIK | 
10 | 0.7 fold vs antibody 20 | 0.72 fold vs antibody 1 |  | antibody 8 (antibody, V domains shown, Humanized antibody of the invention; also called H02L04) VH: LVQLVESGGGVVRPGGSLRLSCAASGFTFSNYGMSWIRQAPGKGLEWVSTISNSGRYTYFPDSVKGRFTISRDNAKNSLYLQMNSLRAEDTALYYCTRHLDYANYDAMDYWGQGTLVTVSS VL: DIVMTQSPDSLAVSLGERATINCKASKSVTTSDFSYLHWYQQKPGQPPKLLIYLASNLESGVPDRFSGSGSGTDFTLTISSLQAEDVAVYYCQHSREFPWTFGGGTKLEIK | 
11 | 0.75 fold vs antibody 20 |  |  | antibody 17 (antibody, V domains shown, also called H05L05) VH: EVQLLESGGGLVQPGGSLRLSCAASGFTFSNYGMSWVRQAPGKGLEWVSTISNSGRYTYFPDSVKGRFTISRDNSKNTLYLQMNSLRAEDTAVYYCAKHLDYANYDAMDYWGQGTLVTVSS VL: DIQMTQSPSSLAVSLGDRVTITCRASKSVTTSDFSYMHWYQQKPGLAPKLLIYLASNLESGVPSRFSGSGSGTDFTFTISSLQPEDIATYYCQHSREFPWTFGQGTKVEVK | 
12 |  |  | 0.96 fold vs antibody 9 | antibody 10 (antibody, V domains shown, Humanized antibody of the invention; also called H03L02) VH: LVQLVESGGGVVQPGRSLRLSCAASGFTFSNYGMSWVRQAPGKGLEWVATISNSGRYTYFPDSVKGRFTISRDNSKNTLYLQMNSLRAEDTAVYYCTRHLDYANYDAMDYWGQGTLVTVSS VL: DVVMTQSPSTLSASVGDRVTITCRASKSVTTSDFSYMHWYQQKPGQAPKLLIYLASNLESGVPSRFSGSGSGTDFTLTISSLQPEDFATYYCQHSREFPWTFGQGTKLEIK | 
13 |  |  | 1.04 fold vs antibody 9 | antibody 14 (antibody, V domains shown, Humanized antibody of the invention; also called H04L02) VH: EVQLLESGGGLVQPGGSLRLSCAVSGFTFSNYGMSWVRQAPGKGLEWVSTISNSGRYTYFPDSVKGRFTISRDNSRNTLYLQMNTLRAEDTAVYYCTRHLDYANYDAMDYWGQGTPVTVSS VL: DVVMTQSPSTLSASVGDRVTITCRASKSVTTSDFSYMHWYQQKPGQAPKLLIYLASNLESGVPSRFSGSGSGTDFTLTISSLQPEDFATYYCQHSREFPWTFGQGTKLEIK | 
14 |  | 0.65 fold vs antibody 1 |  | antibody 7 (antibody, V domains shown, Humanized antibody of the invention; also called H02L03) VH: LVQLVESGGGVVRPGGSLRLSCAASGFTFSNYGMSWIRQAPGKGLEWVSTISNSGRYTYFPDSVKGRFTISRDNAKNSLYLQMNSLRAEDTALYYCTRHLDYANYDAMDYWGQGTLVTVSS VL: DIQMTQSPSSLSASVGDRVTITCRASKSVTTSDFSYMHWYQQKPGKSPKLLIYLASNLESGVPSRFSGSGSGTDFSLTISSLQPEDFATYYCQHSREFPWTFGGGTKVEIK | 
15 |  |  | 0.91 fold vs antibody 9 | antibody 12 (antibody, V domains shown, Humanized antibody of the invention; also called H03L04) VH: LVQLVESGGGVVQPGRSLRLSCAASGFTFSNYGMSWVRQAPGKGLEWVATISNSGRYTYFPDSVKGRFTISRDNSKNTLYLQMNSLRAEDTAVYYCTRHLDYANYDAMDYWGQGTLVTVSS VL: DIVMTQSPDSLAVSLGERATINCKASKSVTTSDFSYLHWYQQKPGQPPKLLIYLASNLESGVPDRFSGSGSGTDFTLTISSLQAEDVAVYYCQHSREFPWTFGGGTKLEIK | 
16 | 1.09 fold vs antibody 20 |  | 0.88 fold vs antibody 9 | antibody 16 (antibody, V domains shown, Humanized antibody of the invention; also called H04L04) VH: EVQLLESGGGLVQPGGSLRLSCAVSGFTFSNYGMSWVRQAPGKGLEWVSTISNSGRYTYFPDSVKGRFTISRDNSRNTLYLQMNTLRAEDTAVYYCTRHLDYANYDAMDYWGQGTPVTVSS VL: DIVMTQSPDSLAVSLGERATINCKASKSVTTSDFSYLHWYQQKPGQPPKLLIYLASNLESGVPDRFSGSGSGTDFTLTISSLQAEDVAVYYCQHSREFPWTFGGGTKLEIK | 
17 | 1.56 fold vs antibody 20 | 0.99 fold vs antibody 1 |  | antibody 3 (antibody, V domains shown, Humanized antibody of the invention; also called H01L03) VH: EVQLLESGGGLVQPGGSLRLSCAASGFTFSNYGMSWVRQAPGKGLEWVSTISNSGRYTYFPDSVKGRFTISRDNSKNTLYLQMNSLRAEDTALYYCTRHLDYANYDAMDYWGQGTLVTVSS VL: DIQMTQSPSSLSASVGDRVTITCRASKSVTTSDFSYMHWYQQKPGKSPKLLIYLASNLESGVPSRFSGSGSGTDFSLTISSLQPEDFATYYCQHSREFPWTFGGGTKVEIK | 
18 |  |  | 1.25 fold vs antibody 9 | antibody 11 (antibody, V domains shown, Humanized antibody of the invention; also called H03L03) VH: LVQLVESGGGVVQPGRSLRLSCAASGFTFSNYGMSWVRQAPGKGLEWVATISNSGRYTYFPDSVKGRFTISRDNSKNTLYLQMNSLRAEDTAVYYCTRHLDYANYDAMDYWGQGTLVTVSS VL: DIQMTQSPSSLSASVGDRVTITCRASKSVTTSDFSYMHWYQQKPGKSPKLLIYLASNLESGVPSRFSGSGSGTDFSLTISSLQPEDFATYYCQHSREFPWTFGGGTKVEIK | 
19 |  | 0.71 fold vs antibody 1 |  | antibody 6 (antibody, V domains shown, Humanized antibody of the invention; also called H02L02) VH: LVQLVESGGGVVRPGGSLRLSCAASGFTFSNYGMSWIRQAPGKGLEWVSTISNSGRYTYFPDSVKGRFTISRDNAKNSLYLQMNSLRAEDTALYYCTRHLDYANYDAMDYWGQGTLVTVSS VL: DVVMTQSPSTLSASVGDRVTITCRASKSVTTSDFSYMHWYQQKPGQAPKLLIYLASNLESGVPSRFSGSGSGTDFTLTISSLQPEDFATYYCQHSREFPWTFGQGTKLEIK | 
